Experimental data as given in article PMC4222680, “A Germline Polymorphism of Thymine DNA Glycosylase Induces Genomic Instability and Cellular Transformation”.

Key:
[1] = target: TDG WT (human, UniProt Q13569 1-410); assay: EMSA; 20 mM HEPES pH 7.3, 1 mM EDTA, 10 mM (NH4)2SO4, 1 mM DTT, 0.2% Tween-20, 30 mM KCl; 2 nM DNA, 30 min at room temperature; 6% native PAGE at 4 C; conditions: protein: recombinant; tags: N-terminal 6xHis (pET28a); label: 5'-32P on the template oligonucleotide; blunt
[2] = target: TDG G199S (human (rs4135113 variant), UniProt Q13569 1-410, G199S); assay: as above; conditions: protein: recombinant; tags: N-terminal 6xHis (pET28a); label: 5'-32P on the template oligonucleotide; blunt
Sequence of TDG G199S (Q13569 whole entry G199S): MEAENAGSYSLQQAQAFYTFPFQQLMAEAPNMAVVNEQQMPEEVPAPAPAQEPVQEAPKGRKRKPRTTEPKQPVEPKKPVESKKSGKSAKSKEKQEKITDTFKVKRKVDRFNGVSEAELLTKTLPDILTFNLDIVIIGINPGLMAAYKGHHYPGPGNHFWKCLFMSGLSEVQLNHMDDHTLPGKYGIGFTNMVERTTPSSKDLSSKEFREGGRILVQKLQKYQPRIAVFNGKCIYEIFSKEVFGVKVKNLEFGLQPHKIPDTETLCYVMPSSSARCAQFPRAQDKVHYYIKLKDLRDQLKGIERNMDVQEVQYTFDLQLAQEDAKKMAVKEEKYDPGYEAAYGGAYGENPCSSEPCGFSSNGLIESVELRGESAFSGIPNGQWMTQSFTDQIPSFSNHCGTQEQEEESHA

Sequence of TDG WT (Q13569 whole entry): as the sequence (Q13569 whole entry G199S) above, with S199G counted along it

B1: 28-mer 5-FU:A (dsDNA)
DNA 1: CAGCTCTGTACATGAGCAGTGGTGACAC
DNA 2: GTGTCACCACTGCTCAUGTACAGAGCTG
modifications: 5-fluorouracil (X, written U) at position 17 of strand 2, opposite A12 of strand 1
Question: What does the source list for B1?
Answer: Kd [1]: 77 ± 13 nM; Kd [2]: 41 ± 5 nM
